Experimental data taken from the supplement of paper PMC9112550, “Optimization of the antimicrobial peptide Bac7 by deep mutational scanning” (BMC Biology, 2022).

What follows are sequences tested on Escherichia coli TOP10 (assay: shrunken log2 fold change of peptide-encoding DNA abundance (4.5 h post-induction vs induction); higher = less antimicrobial activity (less host growth inhibition)). Conditions: time post-induction: 4.5 h; library: site-saturation at positions 5, 18, 19, 20.
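Further: peptides expressed intracellularly from a pBAD plasmid library in pooled LB shake-flask culture, induced with 0.3% L-arabinose, DNA abundance read by NGS, three biological replicates, DESeq2 with apeglm shrinkage.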

Row | Sequence | shrunken log2 fold change
1 | RRIRERPPRLPRPRPRPGNNPRP | -0.426
2 | RRIRERPPRLPRPRPRPGQAPRP | -0.00166
3 | RRIRERPPRLPRPRPRPGQQPRP | -0.0809
4 | RRIRERPPRLPRPRPRPGQVPRP | 0.126
5 | RRIRERPPRLPRPRPRPGRAPRP | 0.367
6 | RRIRERPPRLPRPRPRPGVWPRP | 0.44
7 | RRIRERPPRLPRPRPRPGWGPRP | 0.521
8 | RRIRERPPRLPRPRPRPGYSPRP | -0.00468
9 | RRIRERPPRLPRPRPRPHAYPRP | -0.352
10 | RRIRERPPRLPRPRPRPHDIPRP | -0.0102
11 | RRIRERPPRLPRPRPRPHDVPRP | 0.00785
12 | RRIRERPPRLPRPRPRPHEIPRP | -0.0168
13 | RRIRERPPRLPRPRPRPHFEPRP | -0.211
14 | RRIRERPPRLPRPRPRPHGEPRP | -0.0812
15 | RRIRERPPRLPRPRPRPHKRPRP | 3.62
16 | RRIRERPPRLPRPRPRPHLHPRP | -0.485
17 | RRIRERPPRLPRPRPRPHLNPRP | -0.434
18 | RRIRERPPRLPRPRPRPHNSPRP | -0.156
19 | RRIRERPPRLPRPRPRPHNVPRP | -0.42
20 | RRIRERPPRLPRPRPRPHPEPRP | -0.073
21 | RRIRERPPRLPRPRPRPHQRPRP | 0.0138
22 | RRIRERPPRLPRPRPRPHREPRP | -0.0302
23 | RRIRERPPRLPRPRPRPHSSPRP | -0.0464
24 | RRIRERPPRLPRPRPRPHTGPRP | -1.1
25 | RRIRERPPRLPRPRPRPHTTPRP | -0.205

Row | Sequence | shrunken log2 fold change
26 | RRIRERPPRLPRPRPRPHVPPRP | -0.0791
27 | RRIRERPPRLPRPRPRPHYVPRP | -0.0222
28 | RRIRERPPRLPRPRPRPIADPRP | 0.13
29 | RRIRERPPRLPRPRPRPIAIPRP | -0.00127
30 | RRIRERPPRLPRPRPRPIAQPRP | -0.0491
31 | RRIRERPPRLPRPRPRPICQPRP | 0.00158
32 | RRIRERPPRLPRPRPRPIDIPRP | -0.01
33 | RRIRERPPRLPRPRPRPIDNPRP | -0.108
34 | RRIRERPPRLPRPRPRPIEEPRP | -0.0104
35 | RRIRERPPRLPRPRPRPIFYPRP | -0.385
36 | RRIRERPPRLPRPRPRPIGCPRP | -0.00631
37 | RRIRERPPRLPRPRPRPIGFPRP | -0.134
38 | RRIRERPPRLPRPRPRPIHFPRP | -0.00865
39 | RRIRERPPRLPRPRPRPIHRPRP | 0.0155
40 | RRIRERPPRLPRPRPRPIHTPRP | 0.0013
41 | RRIRERPPRLPRPRPRPIIPPRP | -0.835
42 | RRIRERPPRLPRPRPRPILHPRP | -0.0255
43 | RRIRERPPRLPRPRPRPILNPRP | 2.73
44 | RRIRERPPRLPRPRPRPILSPRP | -0.316
45 | RRIRERPPRLPRPRPRPIMDPRP | -0.247
46 | RRIRERPPRLPRPRPRPIMGPRP | -0.21
47 | RRIRERPPRLPRPRPRPIMPPRP | -0.356
48 | RRIRERPPRLPRPRPRPIMWPRP | -0.268
49 | RRIRERPPRLPRPRPRPINHPRP | 0.198
50 | RRIRERPPRLPRPRPRPIRCPRP | 0.0648

Row | Sequence | shrunken log2 fold change
51 | RRIRERPPRLPRPRPRPIRIPRP | -0.00822
52 | RRIRERPPRLPRPRPRPITWPRP | 0.0224
53 | RRIRERPPRLPRPRPRPIVQPRP | -0.311
54 | RRIRERPPRLPRPRPRPIWAPRP | 0.639
55 | RRIRERPPRLPRPRPRPKAFPRP | 0.0124
56 | RRIRERPPRLPRPRPRPKCEPRP | 0.0279
57 | RRIRERPPRLPRPRPRPKDDPRP | 0.104
58 | RRIRERPPRLPRPRPRPKDFPRP | -0.00088
59 | RRIRERPPRLPRPRPRPKEAPRP | 0.324
60 | RRIRERPPRLPRPRPRPKEMPRP | -0.192
61 | RRIRERPPRLPRPRPRPKENPRP | -0.135
62 | RRIRERPPRLPRPRPRPKGHPRP | 0.092
63 | RRIRERPPRLPRPRPRPKGKPRP | -0.0014
64 | RRIRERPPRLPRPRPRPKKQPRP | -0.0932
65 | RRIRERPPRLPRPRPRPKKSPRP | -0.182
66 | RRIRERPPRLPRPRPRPKMQPRP | -0.0537
67 | RRIRERPPRLPRPRPRPKMRPRP | 0.962
68 | RRIRERPPRLPRPRPRPKMSPRP | 0.148
69 | RRIRERPPRLPRPRPRPKQIPRP | 0.169
70 | RRIRERPPRLPRPRPRPKRPPRP | 0.194
71 | RRIRERPPRLPRPRPRPKVNPRP | -0.389
72 | RRIRERPPRLPRPRPRPKVQPRP | 0.105
73 | RRIRERPPRLPRPRPRPLAAPRP | -0.0502
74 | RRIRERPPRLPRPRPRPLCDPRP | 1.81
75 | RRIRERPPRLPRPRPRPLCHPRP | -0.0201
